The labels stand for the following.
B1: Fcab FS17-33-116 with LALA mutation (designed binder)
chain: TCPPCPAPEAAGGPSVFLFPPKPKDTLMISRTPEVTCVVVDVSHEDPEVKFNWYVDGVEVHNAKTKPREEQYNSTYRVVSVLTVLHQDWLNGKEYKCKVSNKALPAPIEKTISKAKGQPREPQVYTLPPSRDESGYWVSLTCLVKGFYPSDIVVEWESNGEPQYWAKTTPPVLDSDGSFFLYSKLTVSNWRWQMDDFSCSVMHEALHNHYTQKSLSLSPGK
B2: Fcab FS17-33-289 with LALA mutation (designed binder)
chain: B1 chain with M194L
B3: Fcab FS17-33-288 with LALA mutation (designed binder)
chain: B1 chain with M194I
B4: FS17-33-289AA/HelD1.3 mock mAb^2 (bispecific antibody, human IgG1, kappa, L234A L235A)
heavy: QVQLQESGPGLVRPSQTLSLTCTVSGSTFSGYGVNWVRQPPGRGLEWIGMIWGDGNTDYNSALKSRVTMLVDTSKNQFSLRLSSVTAADTAVYYCARERDYRLDYWGQGSLVTVSSASTKGPSVFPLAPSSKSTSGGTAALGCLVKDYFPEPVTVSWNSGALTSGVHTFPAVLQSSGLYSLSSVVTVPSSSLGTQTYICNVNHKPSNTKVDKKVEPKSCDKTHTCPPCPAPEAAGGPSVFLFPPKPKDTLMISRTPEVTCVVVDVSHEDPEVKFNWYVDGVEVHNAKTKPREEQYNSTYRVVSVLTVLHQDWLNGKEYKCKVSNKALPAPIEKTISKAKGQPREPQVYTLPPSRDESGYWVSLTCLVKGFYPSDIVVEWESNGEPQYWAKTTPPVLDSDGSFFLYSKLTVSNWRWQLDDFSCSVMHEALHNHYTQKSLSLSPGK
light: DIQMTQSPASLSASVGETVTITCRASGNIHNYLAWYQQKQGKSPQLLVYNAKTLADGVPSRFSGSGSGTQYSLKINSLQPEDFGSYYCQHFWSTPRTFGGGTKLEIKRTVAAPSVFIFPPSDEQLKSGTASVVCLLNNFYPREAKVQWKVDNALQSGNSQESVTEQDSKDSTYSLSSTLTLSKADYEKHKVYACEVTHQGLSSPVTKSFNRGEC
notes: also called F17-33-289AA/HelD1.3; F17-33-289AA/HELD1.3
B5: FS17-33-289/HelD1.3 mock mAb^2 (without LALA) (bispecific antibody, human IgG1, kappa)
heavy: B4 heavy with A233L, A234L
light: B4 light
B6: FS17-33-288AA/HelD1.3 mock mAb^2 (bispecific antibody, human IgG1, kappa, L234A L235A)
heavy: B4 heavy with L417I
light: B4 light
notes: also called F17-33-288AA/HelD1.3; F17-33-288AA/HELD1.3
B7: FS17-33-334AA/HelD1.3 mock mAb^2 (bispecific antibody, human IgG1, kappa, L234A L235A)
heavy: B4 heavy with V376A
light: B4 light
B8: FS17-33-296AA/HelD1.3 mock mAb^2 (bispecific antibody, human IgG1, kappa, L234A L235A)
heavy: B4 heavy with L417V
light: B4 light
notes: also called F17-33-296AA/HelD1.3; F17-33-296AA/HELD1.3

Positions count from the first letter of the chain named.

Sequence of Human PD-L1 expressed on cells (Q9NZQ7 19-290 limits assumed): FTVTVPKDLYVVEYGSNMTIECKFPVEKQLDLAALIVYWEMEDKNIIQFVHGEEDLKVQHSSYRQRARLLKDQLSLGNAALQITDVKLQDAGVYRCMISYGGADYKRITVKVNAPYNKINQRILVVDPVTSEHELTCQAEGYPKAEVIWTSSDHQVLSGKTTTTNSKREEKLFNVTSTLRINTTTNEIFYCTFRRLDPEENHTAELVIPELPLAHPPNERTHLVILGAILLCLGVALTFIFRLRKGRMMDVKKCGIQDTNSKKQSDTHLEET

This experiment has as its target Human PD-L1 expressed on cells (human, UniProt Q9NZQ7 19-290). Put plainly: cell-based or functional assay.
On to B1, for which the “SEB assay (IFNγ release) EC50” value was found to be 100 pM.
As for B2, the figure is 108 pM.
As for B3, the figure is 89.9 pM.
The value for B4 was 566 pM.
B5: the “SEB assay (IFNγ release) EC50” value was determined as 969 pM.
The value for B6 was 1020 pM.
The value for B7 was 761 pM; that for B8 was 1770 pM.

Values taken from patent US20230406935A1 (F STAR THERAPEUTICS, published 2023).
